Data: patent US20250026827A1 (Alector, published 2025)
Residue numbers refer to the chain shown, from its start. Blank lines part the entries; values can stand above or below the binder they belong to.

Assays:
mouse SIRPα D1-Fc = target: T1, mouse SIRPα D1-Fc (mouse, UniProt P97797 32-150, limits assumed); assay: Octet
T1 construct: domain: D1
T1 sequence (looked up): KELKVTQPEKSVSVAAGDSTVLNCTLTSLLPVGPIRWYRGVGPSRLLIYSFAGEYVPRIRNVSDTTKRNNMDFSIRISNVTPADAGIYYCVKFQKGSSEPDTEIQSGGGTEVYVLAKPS
Procedure: Briefly, Octet affinity measurements were performed by loading IgGs on-line onto AHQ sensors. Sensors were equilibrated off-line in assay buffer for 30 min and then monitored on-line for 60 seconds for baseline establishment. For avid binding measurement, sensors with loaded IgGs were exposed to 100 nM antigen (human SIRPα domain 1 (D1) Fc fusion or SIRPβ1 domain 1 (D1) Fc fusion) for 3 min, and then transferred to assay buffer for 3 min for off-rate measurement. Additional avid binding was determined by loading biotinylated SIRPβ1 monomer on SA sensors and exposing to 100 nM IgG in solution. Monovalent binding measurements were obtained by loading human SIRPα- or SIRPβ1-Fc fusion antigens onto AHQ sensor, followed by exposure to 100 nM anti-SIRPβ1 antibody Fab. Additional monovalent measurements were made by loading biotinylated human SIRPα or SIRPβ1 monomer to SA sensor followed by exposure to 100 nM Fab in solution. Kinetics data were fit using a 1:1 binding model in the data analysis software provided by ForteBio (ForteBio Data Analysis Software 7.0).

[1] = target: T2, human SIRPα domain 1 (D1) Fc fusion (human, UniProt P78324 32-149); assay: Octet
T2 construct: also called human SIRPα D1-Fc; Human SIRPα Fc; not shown: C-terminal human IgG1 Fc

human SIRPα on cells [2] = target: T3, human SIRPα on cells (human, UniProt P78324 31-504); assay: flow cytometry;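 for FOB: antibodies tested at 1 µg/ml for 30 min on ice against receptor-expressing cells, detected with a PE-labelled secondary antibody, read as mean fluorescence intensity relative to background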
T3 construct: Whole entry

[3] = target: T4, mouse SIRPβ1 on CHO cells (mouse); assay: flow cytometry;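 for FOB: antibodies tested at 1 µg/ml for 30 min on ice against receptor-expressing cells, detected with a PE-labelled secondary antibody, read as mean fluorescence intensity relative to background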
T4 construct: Whole entry
T4 chain: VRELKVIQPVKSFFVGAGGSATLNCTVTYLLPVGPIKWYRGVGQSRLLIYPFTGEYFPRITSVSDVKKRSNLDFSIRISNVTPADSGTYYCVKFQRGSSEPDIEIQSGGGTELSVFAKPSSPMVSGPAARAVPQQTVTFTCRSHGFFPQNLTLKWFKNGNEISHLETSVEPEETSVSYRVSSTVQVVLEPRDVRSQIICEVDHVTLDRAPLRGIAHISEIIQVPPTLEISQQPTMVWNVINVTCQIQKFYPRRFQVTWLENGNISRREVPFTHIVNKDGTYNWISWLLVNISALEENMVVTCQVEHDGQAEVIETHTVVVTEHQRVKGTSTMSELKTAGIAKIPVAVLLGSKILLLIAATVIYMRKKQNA

mouse SIRPα on cells [4] = target: T5, mouse SIRPα on cells (mouse, UniProt P97797 32-513); assay: flow cytometry;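 for FOB: antibodies tested at 1 µg/ml for 30 min on ice against receptor-expressing cells, detected with a PE-labelled secondary antibody, read as mean fluorescence intensity relative to background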
T5 construct: whole, on cells
T5 sequence (looked up): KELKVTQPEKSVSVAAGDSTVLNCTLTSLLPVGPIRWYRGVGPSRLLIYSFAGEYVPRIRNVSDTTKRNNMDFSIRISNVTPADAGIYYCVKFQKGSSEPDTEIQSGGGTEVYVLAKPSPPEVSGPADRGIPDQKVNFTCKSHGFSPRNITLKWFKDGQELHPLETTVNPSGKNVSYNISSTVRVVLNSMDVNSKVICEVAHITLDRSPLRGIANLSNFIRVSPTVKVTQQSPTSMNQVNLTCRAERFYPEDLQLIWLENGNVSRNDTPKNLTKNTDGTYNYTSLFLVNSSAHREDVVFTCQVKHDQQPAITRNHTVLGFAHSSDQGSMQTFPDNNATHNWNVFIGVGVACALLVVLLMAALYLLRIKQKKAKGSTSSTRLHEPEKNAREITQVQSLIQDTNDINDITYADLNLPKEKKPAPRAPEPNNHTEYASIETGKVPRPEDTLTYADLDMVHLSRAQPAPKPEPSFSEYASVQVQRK

[5] = target: T6, human SIRPβ1 isoform 1 on cells (human, UniProt O00241 30-398); assay: flow cytometry;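 note: antibodies tested at 1 µg/ml for 30 min on ice against receptor-expressing cells, detected with a PE-labelled secondary antibody, read as mean fluorescence intensity relative to background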
T6 construct: On CHO cells (low level), on BWZ/BW5147.G.1.4 cells (reporter cells co-express human DAP12) or on primary human myeloid cells; also called huSIRPβ1; BWZ-huSIRPβ1
T6 sequence (O00241 30-398): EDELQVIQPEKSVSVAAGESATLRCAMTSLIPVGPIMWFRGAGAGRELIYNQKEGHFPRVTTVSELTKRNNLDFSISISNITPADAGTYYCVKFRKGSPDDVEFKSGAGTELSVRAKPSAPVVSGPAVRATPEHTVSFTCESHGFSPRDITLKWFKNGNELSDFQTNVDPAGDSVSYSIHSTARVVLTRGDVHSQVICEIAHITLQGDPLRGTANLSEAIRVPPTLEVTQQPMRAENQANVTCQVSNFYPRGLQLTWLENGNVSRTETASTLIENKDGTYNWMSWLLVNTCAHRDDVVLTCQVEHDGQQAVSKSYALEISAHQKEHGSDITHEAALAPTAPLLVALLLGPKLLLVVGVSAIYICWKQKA
Procedure: (§1) Initial characterization of anti-SIRPβ1 antibodies involved determining their ability to bind cell lines expressing human or mouse SIRPβ1. Cells were harvested, plated at 10⁶/ml in a 96-well plate, washed, and incubated in 100 μl FACS buffer containing 1 μg/ml anti-SIRPβ1 antibody for 0.5 hour on ice. Cells were then washed twice and incubated in 100 μl FACS buffer containing 0.5 μg/ml PE-conjugated secondary antibody for 30 minutes on ice. Cells were washed twice in cold FACS buffer and acquired on a BD FACS Canto. Data analysis and calculation of mean fluorescence intensity (MFI) values or 00 positive cells was performed with FlowJo (TreeStar) software version 10.0.7.
(§2) As a negative control, the anti-SIRPβ1 antibodies were also screened for surface binding to CHO cells overexpressing recombinant mouse SIRPβ31. […] Given the high sequence similarity between receptors of the SIRPβ family, anti-SIRPβ1 antibodies were also screened for cross-reactivity to human and mouse SIRPα.

human SIRPα on cells [6] = target: T3, human SIRPα on cells; assay: flow cytometry; remark: listed apart in the source
Procedure: as §1, §2

[7] = target: T4, mouse SIRPβ1 on CHO cells; assay: flow cytometry
Procedure: as §1, §2

mouse SIRPα on cells [8] = target: T5, mouse SIRPα on cells; assay: flow cytometry; remark: listed apart in the source
Procedure: as §1, §2

[9] = target: T7, human SIRPβ1 domain 1 (D1) Fc fusion (human, UniProt O00241 30-148); assay: Octet, IgG avid
T7 construct: Made in HEK293/T cells with a heterologous signal peptide; also called Human SIRPβ1 D1-Fc; Human SIRPβ1-Fc; not shown: C-terminal human IgG1 Fc
T7 sequence (O00241 30-148 limits assumed): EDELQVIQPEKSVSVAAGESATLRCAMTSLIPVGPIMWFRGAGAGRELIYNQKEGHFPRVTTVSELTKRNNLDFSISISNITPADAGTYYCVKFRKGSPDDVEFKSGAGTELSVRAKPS

[10] = target: T7, human SIRPβ1 domain 1 (D1) Fc fusion; assay: Octet, Fab monovalent

B6: SB-1-5 Fab (Fab, V domains shown)
VH: QVQLVESGGGVVQPGRSLRLSCAASGFTFSAYGMNWVRQAPGKGLEWVSAISASGRSTFYADSVKGRFTISRDNSKNTLYLQMNSLRAEDTAVYYCAKDFTEVVGWLGMDVWGQGTTVTVSS
VL: EIVMTQSPGTLSLSPGERATLSCRASQSVSSSYLAWYQQKPGQAPRLLIYGASSRATGIPDRFSGSGSGTDFTLTISRLEPEDFAVYYCQLLGSSPRTFGGGTKVEIK
notes: Fab by papain digestion
Kd [10]: 82.4 nM

B7: SB-1-2 Fab (Fab, V domains shown)
VH: B6 VH with S30G, A31S, Y32F, S52T, R56G
VL: B6 VL
notes: Fab by papain digestion
Kd [10]: 37.8 nM

B8: SB-1-4 Fab (Fab, V domains shown)
VH: B6 VH with R16G, S52R, R56G, S57A, F59Y
VL: B6 VL
notes: Fab by papain digestion
Kd [10]: 43.3 nM

B9: SB-1-3 Fab (Fab, V domains shown)
VH: B6 VH with Q1E, V11L, Q13K, R16G, S52T, A53S, F59Y
VL: B6 VL
notes: Fab by papain digestion
Kd [10]: 45.4 nM

B10: SB-2-9 Fab (Fab, V domains shown)
VH: QVQLVESGGGVVQPGRSLRLSCAASGFTFKTYGMHWVRQAPGKGLEWVAHIWYEGSNKVYADSVKGRFTISRDNSKNTLYLQMNSLRAEDTAVYYCARDQTAAAAIWGMDVWGQGTTVTVSS
VL: B6 VL with I2V, M4L, L91Q, L92S, G93S, S95H, R97F
notes: Fab by papain digestion
Kd [10]: 19.2 nM

B11: SB-40-18 Fab (Fab, V domains shown)
VH: QVQLVQSGAEVKKPGASVKVSCKASGYTFTSYYMAWVRQAPGQRLEWMGWINPAVGATIYSQKFQGRVTITRDTSASTAYMELSSLRSEDTAVYYCARDTGEYSYSPHGMDVWGQGTTVTVSS
VL: EIVLTQSPATLSLSPGERATLSCRASQSVSSYLAWYQQKPGQAPRLLIYDSSNRATGIPARFSGSGSGTDFTLTISSLEPEDFAVYYCQQRDEHPPWTFGGGTKVEIK
notes: Fab by papain digestion
Kd [10]: 18.1 nM

B12: SB-40-19 Fab (Fab, V domains shown)
VH: QVQLVQSGAEVKKPGASVKVSCKASGYTFTSYYMVWVRQAPGQGLEWMGIINPSSGATNYAQKFQGRVTMTTDTSTSTAYMELRSLRSDDTAVYYCARDTGEYSYSPHGMDVWGQGTTVTVSS
VL: B11 VL
notes: Fab by papain digestion
Kd [10]: 44.8 nM

B13: SB-40-20 Fab (Fab, V domains shown)
VH: B12 VH with Y32F, M34I, V35S, A57H, F64L, R84S, D89E
VL: B11 VL
notes: Fab by papain digestion
Kd [10]: 9.41 nM

B14: SB-40-21 Fab (Fab, V domains shown)
VH: B12 VH with A57D, T72R, T76I, R84S, S85R
VL: B11 VL
notes: Fab by papain digestion
Kd [10]: 40.4 nM

The remaining lines, values ahead:

binding result (mouse SIRPα D1-Fc): no binding (tested: 100 nM)
binding result [1]: no binding (tested: 100 nM)
binding result (human SIRPα on cells [2]): no binding (tested: 1 ug/ml)
binding result [3]: no binding (tested: 1 ug/ml)
binding result (mouse SIRPα on cells [4]): no binding (tested: 1 ug/ml)
FOB [5]: 2.8 fold over background
FOB (human SIRPα on cells [6]): 2.9 fold over background
FOB [7]: 1.5 fold over background
FOB (mouse SIRPα on cells [8]): 1.2 fold over background
Kd [9]: 18.9 nM
B1: SB-44 (antibody, V domains shown)
VH: EVQLVESGGGLVQPGGSLRLSCAASGFTVSSNYMSWVRQAPGKGLEWVSVIYSGGDTYYADSVKGRFTISRDNSKNTLYLQMNSLRAEDTAVYYCAREGSSFWSGSAVSYYGMDVWGQGTTVTVSS
VL: DIQMTQSPSTLSASVGDRVTITCRASQSIGSWLAWYQQKPGKAPKLLIYKASSLESGVPSRFSGSGSGTEFTLTISSLQPDDFATYYCQEYGSYRTFGGGTKVEIK
notes: IgG

binding result (mouse SIRPα D1-Fc): no binding (tested: 100 nM)
binding result [1]: no binding (tested: 100 nM)
binding result (human SIRPα on cells [2]): no binding (tested: 1 ug/ml)
binding result [3]: no binding (tested: 1 ug/ml)
binding result (mouse SIRPα on cells [4]): no binding (tested: 1 ug/ml)
FOB [5]: 1.6 fold over background
FOB (human SIRPα on cells [6]): 2.1 fold over background
FOB [7]: 1.3 fold over background
FOB (mouse SIRPα on cells [8]): 1.7 fold over background
Kd [9]: 14.4 nM
B2: SB-47 (antibody, V domains shown)
VH: QLQLQESGPGLVKPSETLSLTCTVSGGSISSSSYAWGWIRQPPGKGLEWIGSIYYSGSTYYNPSLKSRVTISVDTSKNQFSLKLSSVTAADTAVYYCARDLGHYDYWSGSRDYYYGMDVWGQGTTVTVSS
VL: DIQMTQSPSSLSASVGDRVTITCQASQDISNYLNWYQQKPGKAPKLLIYDASNLETGVPSRFSGSGSGTDFTFTISSLQPEDIATYYCQQADYFPITFGGGTKVEIK
notes: IgG

binding result (mouse SIRPα D1-Fc): no binding (tested: 100 nM)
binding result [1]: no binding (tested: 100 nM)
binding result (human SIRPα on cells [2]): no binding (tested: 1 ug/ml)
binding result [3]: no binding (tested: 1 ug/ml)
binding result (mouse SIRPα on cells [4]): no binding (tested: 1 ug/ml)
FOB [5]: 8.5 fold over background
FOB (human SIRPα on cells [6]): 2.5 fold over background
FOB [7]: 1.4 fold over background
FOB (mouse SIRPα on cells [8]): 1.2 fold over background
Kd [9]: 13.9 nM
B3: SB-45 (antibody, V domains shown)
VH: QVQLQESGPGLVKPSETLSLTCAVSGYSISSGYYWAWIRQPPGKGLEWIGSIYHSGSTYYNPSLKSRVTISVDTSKNQFSLKLSSVTAADTAVYYCARDLSRGYAVSGMDVWGQGTTVTVSS
VL: VLTQSPGTLSLSPGERATLSCRASQSVSSSFLAWYQQKPGQAPRLLIYGASSRATGIPDRFSGSGSGTDFTLTISRLEPEDFAVYYCQQVVSVPTFGGGTKVEIK
notes: IgG

binding result (mouse SIRPα D1-Fc): no binding (tested: 100 nM)
binding result [1]: no binding (tested: 100 nM)
binding result (human SIRPα on cells [2]): no binding (tested: 1 ug/ml)
binding result [3]: no binding (tested: 1 ug/ml)
binding result (mouse SIRPα on cells [4]): no binding (tested: 1 ug/ml)
FOB [5]: 2.8 fold over background
FOB (human SIRPα on cells [6]): 2.3 fold over background
FOB [7]: 1.1 fold over background
FOB (mouse SIRPα on cells [8]): 1.6 fold over background
Kd [9]: 12.3 nM
B4: SB-43 (antibody, V domains shown)
VH: QVQLQESGPGLVKPSETLSLTCAVSGYSISSGYYWAWIRQPPGKGLEWIGSIYHSGSTYYNPSLKSRVTISVDTSKNQFSLKLSSVTAADTAVYYCARDAPGYPMLGMDVWGQGTTVSVSS
VL: EIVLTQSPATLSLSPGERATLSCRASQSVSSYLAWYQQKPGQAPRLLIYDASKRATGIPARFSGSGSGTDFTLTISSLEPEDFAVYYCQQRFDFPITFGGGTKVEIK
notes: IgG

binding result (mouse SIRPα D1-Fc): no binding (tested: 100 nM)
binding result [1]: no binding (tested: 100 nM)
binding result (human SIRPα on cells [2]): no binding (tested: 1 ug/ml)
binding result [3]: no binding (tested: 1 ug/ml)
binding result (mouse SIRPα on cells [4]): no binding (tested: 1 ug/ml)
FOB [5]: 5.3 fold over background
FOB (human SIRPα on cells [6]): 2.1 fold over background
FOB [7]: 1.3 fold over background
FOB (mouse SIRPα on cells [8]): 1.4 fold over background
Kd [9]: 20 nM
B5: SB-46 (antibody, V domains shown)
VH: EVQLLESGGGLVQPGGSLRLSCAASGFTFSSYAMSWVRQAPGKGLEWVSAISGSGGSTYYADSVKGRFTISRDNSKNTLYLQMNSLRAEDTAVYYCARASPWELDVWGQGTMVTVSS
VL: B6 VL with M4L, S30R, L91Q, G93Y, R97Y
notes: IgG

binding result (mouse SIRPα D1-Fc): no binding (tested: 100 nM)
binding result [1]: no binding (tested: 100 nM)
binding result (human SIRPα on cells [2]): no binding (tested: 1 ug/ml)
binding result [3]: no binding (tested: 1 ug/ml)
binding result (mouse SIRPα on cells [4]): no binding (tested: 1 ug/ml)
FOB [5]: 1.7 fold over background
FOB (human SIRPα on cells [6]): 2.1 fold over background
FOB [7]: 1.1 fold over background
FOB (mouse SIRPα on cells [8]): 2.4 fold over background
Kd [9]: 27.7 nM
B15: SB-48 (antibody, V domains shown)
VH: QVQLVESGGGVVQPGRSLRLSCAASGFTFSSYGMHWVRQAPGKGLEWVAVISYDGSNKYYADSVKGRFTISRDNSKNTLYLQMNSLRAEDTAVYYCARDGTIAAAGWPPEYFQHWGQGTLVTVSS
VL: DIQMTQSPSSVSASVGDRVTITCRASQGIDSWLAWYQQKPGKAPKLLIYAASSLQSGVPSRFSGSGSGTDFTLTISSLQPEDFATYYCQQASNFPITFGGGTKVEIK
notes: IgG
